Assay results: patent US20030082561, “Zinc finger domain recognition code and uses thereof” (published 2003)

Target: AL1 ZFP (Clone 1) (artificial)
Test: EMSA; significant binding at 14-35 nM; text prints SEQ ID NO 27 for the bound probe, apparently meaning the G (wild-type) probe SEQ ID NO 26
Conditions: tags: three Sp1C domain 2 framework fingers, pET21-a, E. coli BL21(DE3)pLysS; label: 5'-32P

Chain of AL1 ZFP (Clone 1) (artificial) (chain, as listed by the source): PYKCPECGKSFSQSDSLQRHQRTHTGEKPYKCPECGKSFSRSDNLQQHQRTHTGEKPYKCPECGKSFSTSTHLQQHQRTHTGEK

B1: AL1 probe G (wild type) (dsDNA)
DNA 1: TATATATAAGTAAGGTAGTATATATA
DNA 2: TATATATACTACCTTACTTATATATA
- binding result: binds
